1 molecule from patent publication US9822156B2, “Amyloid beta expression constructs and uses therefor” (Whitehead Institute for Biomedical Research, priority 2014, dated 2017) can be followed below.

Data set [1] relates to 293T cells. Put plainly: TOXILIGHT cytotoxicity assay in stable doxycycline-inducible poly-Aβ 293T cell lines. The class given is cell-based. The following applies: 72-96 hours following doxycycline induction. The text has this:
Similar to the poly-Aβ (Aβ40 or Aβ42_1X/4X/6X/8X) expression constructs in yeast (see Example 1), a poly-Aβ toxicity model was developed in mammalian cells. Stable cell lines with chromosomally-integrated tetracycline (doxycycline)-inducible […] transgenes (Aβ42-4X, Aβ42-6X, Aβ40-4X, Aβ40-6X and Aβ42-Arctic-4X) linked to an N-terminal insulin signal peptide were generated (FIGS. 13A-13B). These expression constructs were generated using the pLix402 lentiviral plasmid (FIG. 12). The poly-Aβ constructs were individually transfected into 293T cells along with the lentiviral packaging plasmid psPAX and the viral envelope-expressing plasmid mMD2.G using LIPOFECTAMINE® 2000 (Invitrogen) transfection reagent to generate lentivirus containing the poly-Aβ transgene. The virus was harvested from the supernatant of transfected 293T cells 2 and 3 days post-transfection and subsequently purified and concentrated using the LENTI-X™ Maxi Purification kit (Clontech) according to the manufacturer's instructions.
To generate stable cells harboring the expression transgene for the poly-Aβ constructs, 293T cells were infected using POLYBRENE® infection reagent (Sigma Aldrich), which is used to introduce retroviral vectors into mammalian cells. Infected cells were then selected using puromycin (2-10 μg/ml). Infected cells harboring the transgene survive this selection pressure whereas the control cells without the transgene die in 2-3 days. Aliquots of the selected cells were frozen in liquid nitrogen or maintained and propagated for further applications.
Expression of Aβ peptide from these stable cell lines was measured in the culture supernatant 72-96 hours following doxycycline induction (FIG. 13D). Toxicity was measured 72-96 hours following doxycycline induction using a TOXILIGHT™ cytotoxicity assay (Lonza) as described in Example 2.

Data set [2] deals with Rat embryonic cortical neurons. Put plainly: […] ATP viability assay in neurons infected with lentiviral poly-Aβ constructs. The class given is cell-based. The settings on record: three weeks post doxycycline-induction (2 μg/ml). The text has this: Rat embryonic cortical neurons were infected with lentiviral poly-Aβ expression constructs to model poly-Aβ toxicity. Tetracycline (doxycycline)-inducible poly-Aβ (Aβ42-4X, Aβ42-6X, Aβ40-4X, Aβ40-6X, and Aβ42-Arctic-4X) viral constructs described in Example 5 were used to express poly-Aβ constructs in rat cortical neurons. In each expression construct, the poly-Aβ coding sequence is linked to an N-terminal insulin signal peptide. The poly-Aβ expression plasmids were packaged in lentiviral particles, which were generated by 293T cells as described in Example 3.
Rat cortical neurons were enriched from cortices dissected out of embryonic (E18) rat brains and enriched in adherent monolayer culture as described in Example 3. Purified lentiviral preparations at different MOI were used to infect these cortical neurons to express poly-Aβ transgenes. Three days post-infection, expression of poly-Aβ was induced by adding doxycycline (2 μg/ml) to the infected cultures.

B1: Aβ42-Arctic-4X: doxycycline-inducible construct, insulin signal peptide and four copies of Aβ42 E22G, SEQ ID NO:37 (protein)
chain: MALWMRLLPLLALLALWGPDPAAADAEFRHDSGYEVHHQKLVFFAGDVGSNKGAIIGLMVGGVVIARRDAEFRHDSGYEVHHQKLVFFAGDVGSNKGAIIGLMVGGVVIAKRDAEFRHDSGYEVHHQKLVFFAGDVGSNKGAIIGLMVGGVVIARRDAEFRHDSGYEVHHQKLVFFAGDVGSNKGAIIGLMVGGVVIA
On to B1, for which, in data set [1], the “Aβ peptide-mediated cytotoxic effect (adenylate kinase release), rank order” value is given as “Aβ42-6X≧Aβ42-Arctic-4X≧Aβ42-4X≧AB40-6X≧Aβ40-4X”. Besides, the “cytotoxicity (viability by ATP levels)” value in data set [2] was “profound cytotoxicity compared to Aβ40-4X”.
